The test system of the experiment is intracellular proteome of ENR+CD and ENR organoids. The experiment in a line: LC-MS/MS TMT proteomics of ENR+CD versus ENR organoids. The class given is cell-based, C57BL/6 mice. The following applies: for Average logFC: ENR+CD versus ENR organoids, sample pairs in aggregate (n=4, 2 technical replicates from two biological donors); for M1-1 Log2 Median Normalized / M1-2 Log2 Median Normalized / M2-1 Log2 Median Normalized / M2-2 Log2 Median Normalized: protein abundance ratio ENR+CD versus ENR organoids, LC-MS/MS TMT proteomics; for M1-1 Log2 Median Normalized: sample pair M1-1; for M1-2 Log2 Median Normalized: sample pair M1-2; for M2-1 Log2 Median Normalized: sample pair M2-1; for M2-2 Log2 Median Normalized: sample pair M2-2; for change: up = enriched in ENR+CD, down = enriched in ENR, FDR<0.05 and log fold change cut-off.

B1: Q9D9Z1 (protein, UniProt Q9D9Z1 1-312, looked up)
chain: MAAPEAEAQETAFRTTGPPTDSEPRPFPPSSRKFPFESAAADSNEDWAVAAEHYLKGSGENGGWEQPAPGVQPSHPATMASAKTVCDAQPHSMPSCGLPADTQTRATSKLPVKSKEADLLRHLHPGGPEPDVTKVTKSRRENGQVKAAETASRRNLRNSYKPFNKQKPEEELKDKNELLEAVNKQLHQKLTETQGELKDLTQKVELLEKFQDNCLALLESKGLNPGQETLASKQEPTTDHTDSMLLLETLKDELKVFNETAKKQMEELQALKVKLKLKEEESVQFLEQQTLCKDEASDFTIILEEMEQLLEM
modifications: full-length
Turning to B1, the “Average logFC” value is recorded as −1.13, the “M1-1 Log2 Median Normalized” value was −1.473, the “M1-2 Log2 Median Normalized” value is −0.579 and the “M2-1 Log2 Median Normalized” value was −0.8635. The “M2-2 Log2 Median Normalized” value is recorded as −1.605 and the change entry was “down”.

B2: Q9D6F4 (protein, UniProt Q9D6F4 1-552, looked up)
chain: MVSVQKVPAIALCSGVSLALLHFLCLAACLNESPGQNSKDEKLCPENFTRILDSLLDGYDNRLRPGFGGPVTEVKTDIYVTSFGPVSDVEMEYTMDVFFRQTWIDKRLKYDGPIEILRLNNMMVTKVWTPDTFFRNGKKSVSHNMTAPNKLFRIMRNGTILYTMRLTISAECPMRLVDFPMDGHACPLKFGSYAYPKSEMIYTWTKGPEKSVEVPKESSSLVQYDLIGQTVSSETIKSITGEYIVMTVYFHLRRKMGYFMIQTYIPCIMTVILSQVSFWINKESVPARTVFGITTVLTMTTLSISARHSLPKVSYATAMDWFIAVCFAFVFSALIEFAAVNYFTNIQMQKAKKKISKPPPEVPAAPVLKEKHTETSLQNTHANLNMRKRTNALVHSESDVKSRTEVGNHSSKTSAVQESSEATPKAHLASSPNPFSRANAAETMSAAARGLSSAASPSPHGTLRPASLGSASTRPAFGSRLGRIKTTVNTTGAAGNVSATPPPPAPPPSGSGTSKIDKYARILFPVTFGAFNMVYWVVYLSKDTMEKSESLM
modifications: full-length
For B2, the “Average logFC” value is recorded as 1.263, the “M1-1 Log2 Median Normalized” value is on record as 0.695, the “M1-2 Log2 Median Normalized” value is 0.98 and the “M2-1 Log2 Median Normalized” value came to 1.4175. In addition, the “M2-2 Log2 Median Normalized” value is 1.959 and the change entry is “up”.

B3: Q9DA97 (protein, UniProt Q9DA97 1-430, looked up)
chain: MAEKPTNTSVPIPGSEDPQKENIRCLSTLGHFGFECLPTQLVNKSIQKGFSFNILCVGETGIGKTTLINTLFNTNLKETKSSHFYSKVGLTVKTYELLERNIPLRLTVVKTVGYGDQINKEASYQPVVDYLDAQFEAYLQEELKIKRSLADYHDSRIHVCLYFITPTGHSLKSLDLLTMKSIDRRVNIIPLIAKADSLSKNDLQRFKNNIMSELNSNGIQIYQFQVDDEASAQVNSSGLLPFAVVGSMEEVKVGKRMVRGRHYPWGVLQEVENENHCDFVKLRDLLLSTNMEDLKDQTHTQHYECYRSNRLQKLGFSDTGPDNRPVSFQEMYEAKRREFHNQCQKEEEELKQTFMQRVKEKELTFKDAEKELQDKFEHLKRIQQEEILKLEEERRKLEEQIIDFYKMKAASESAQAQVCTNIKKDKDRKK
modifications: full-length
Turning to B3, the “Average logFC” value is −1.147, the “M1-1 Log2 Median Normalized” value is given as −0.99, the “M1-2 Log2 Median Normalized” value is on record as −1.148 and the “M2-1 Log2 Median Normalized” value is on record as −0.7465. In addition, the “M2-2 Log2 Median Normalized” value is given as −2.635 and the change result is “down”.

B4: Q9DBG7 (protein, UniProt Q9DBG7 1-636, looked up)
chain: MLDFFTIFSKGGLVLWCFQGVSDSCTGPVNALIRSVLLQERGGNNSFTHEALTLKYKLDNQFELVFVVGFQKILTLTYVDKLIDDVHRLFRDKYRTEIQQQSALSLLNGTFDFQNDFLRLLREAEESSKIRAPTTMKKFEDSEKAKKPVRSMIETRGEKTKEKAKNNKKRGAKKEGSDGTLATSKTAPAEKSGLSAGPENGELSKEELIRRKREEFIQKHGKGLDKSSKSTKSDTPKEKGKKAPRVWELGGCANKEVLDYSTPTTNGTPEAALSEDINLIRGTGPGGQLQDLDCSSSDDEGATQNTKPSATKGTLGGMFGMLKGLVGSKSLSREDMESVLDKMRDHLIAKNVAADIAVQLCESVANKLEGKVMGTFSTVTSTVKQALQESLVQILQPQRRVDMLRDIMDAQRRQRPYVVTFCGVNGVGKSTNLAKISFWLLENGFSVLIAACDTFRAGAVEQLRTHTRRLTALHPPEKHGGRTMVQLFEKGYGKDAAGIAMEAIAFARNQGFDVVLVDTAGRMQDNAPLMTALAKLITVNTPDLVLFVGEALVGNEAVDQLVKFNRALADHSMAQTPRLIDGIVLTKFDTIDDKVGAAISMTYITSKPIVFVGTGQTYCDLRSLNAKAVVAALMKA
modifications: full-length
B4: the “Average logFC” value is 1.192, the “M1-1 Log2 Median Normalized” value came out at 1.346, the “M1-2 Log2 Median Normalized” value is listed as 1.118 and the “M2-1 Log2 Median Normalized” value was found to be 0.9025. Further, the “M2-2 Log2 Median Normalized” value stood at 1.401 and the change result is given as “up”.

B5: Q9D1C1 (protein, UniProt Q9D1C1 1-179, looked up)
chain: MASQNRDPAAASVAAVRKGAEPCGGAARGPVGKRLQQELMILMTSGDKGISAFPESDNLFKWVGTIHGAAGTVYEDLRYKLSLEFPSGYPYNAPTVKFLTPCYHPNVDTQGNICLDILKDKWSALYDVRTILLSIQSLLGEPNIDSPLNTHAAELWKNPTAFKKYLQETYSKQVSSQDP
modifications: full-length
Regarding B5, the “Average logFC” value was −1.255, the “M1-1 Log2 Median Normalized” value is −1.316, the “M1-2 Log2 Median Normalized” value was −0.925 and the “M2-1 Log2 Median Normalized” value is on record as −1.1505. Moreover, the “M2-2 Log2 Median Normalized” value is given as −1.63 and the change result was “down”.

B6: Q9D3P9 (protein, UniProt Q9D3P9 1-169, looked up)
chain: MRGMNLQLVCLTLLAFSSWSLCSDSEEDVRALEADLLTNMHTSKISKASPPSWKMTLLNVCSLINNVNSPAEEAGDMHDDDLVGKRKLPLVLDGFSLEAMLTIFQLQKICRSRAFQHWEIIQEDILDNVNDKNEKEEVIKRKIPYILKRQLYENKPRRPYILKRGSYYY
modifications: full-length
For the molecule B6, the “Average logFC” value stood at 1.285, the “M1-1 Log2 Median Normalized” value is recorded as 1.731, the “M1-2 Log2 Median Normalized” value turned out to be 0.439 and the “M2-1 Log2 Median Normalized” value was determined as 0.8595. Further, the “M2-2 Log2 Median Normalized” value came out at 2.111 and the change entry is on record as “up”.

B7: Q9D8W7 (protein, UniProt Q9D8W7 1-154, looked up)
chain: MASVSTHGNQEKSPHLPPLSKQSLLFCPKSKLHIHRGEIAKIIRECQEESFWKRALPFSLISMLVTQGLVHQGYLAANPRFGSLPKVALAGLLGFGLGKASYIRVCQSKFHSFEDQLRGAGFGPEHNRHCLLTCEDCKTRRGLSEKAGSQPSAS
modifications: full-length
With B7, the “Average logFC” value is −1.397, the “M1-1 Log2 Median Normalized” value is given as −0.573, the “M1-2 Log2 Median Normalized” value was −1.182 and the “M2-1 Log2 Median Normalized” value is given as −1.9045. The “M2-2 Log2 Median Normalized” value is −1.927 and the change result was “down”.

B8: Q9D6X6 (protein, UniProt Q9D6X6 1-382, looked up)
chain: MAGIPGLFILLVLLCVFMQVSPYTVPWKPTWPAYRLPVVLPQSTLNLAKADFDAKAKLEVSSSCGPQCHKGTPLPTYEEAKQYLSYETLYANGSRTETRVGIYILSNGEGRARGRDSEATGRSRRKRQIYGYDGRFSIFGKDFLLNYPFSTSVKLSTGCTGTLVAEKHVLTAAHCIHDGKTYVKGTQKLRVGFLKPKYKDGAGGDNSSSSAMPDKMKFQWIRVKRTHVPKGWIKGNANDIGMDYDYALLELKKPHKRQFMKIGVSPPAKQLPGGRIHFSGYDNDRPGNLVYRFCDVKDETYDLLYQQCDAQPGASGSGVYVRMWKRPQQKWERKIIGIFSGHQWVDMNGSPQDFNVAVRITPLKYAQICYWIKGNYLDCREG
modifications: full-length
For the molecule B8, the “Average logFC” value is 1.179, the “M1-1 Log2 Median Normalized” value worked out at 1.521, the “M1-2 Log2 Median Normalized” value is 1.393 and the “M2-1 Log2 Median Normalized” value was found to be 0.7475. The “M2-2 Log2 Median Normalized” value was 1.055 and the change entry is listed as “up”.

B9: Q9D009 (protein, UniProt Q9D009 1-231, looked up)
chain: MSLPVVRLVWLGRVHYSELLALQEHWLRRLQADPRPGTLSGTKAGVLLVCEPAGPVYTGGLRGGLTPEETTRLRALGAEVRATGRGGLATFHGPGQLLCHPVLDLRLLGLRLRTHVAALEACAVRLCELRGLQGARARPPPYTGVWLGERKICAIGVRCGRHITSHGLALNCSTDLTWFEHIVPCGLVGTGVTSLSEALQRLVTVDEVMPSFLVAFKETFKCTLISEDSPS
modifications: full-length
For B9, the “Average logFC” value is −2.176, the “M1-1 Log2 Median Normalized” value is −0.836, the “M1-2 Log2 Median Normalized” value is on record as −2.401 and the “M2-1 Log2 Median Normalized” value is reported as −2.1745. Besides, the “M2-2 Log2 Median Normalized” value is recorded as −2.621 and the change result is “down”.

B10: Q9D816 (protein, UniProt Q9D816 1-490, looked up)
chain: MDPVLVLVLTLSCLLLLSLWRQNSGRGKLPPGPTPFPIIGNILQIDIKNISKSFNYFSKVYGPVFTLYFGSKPTVVVHGYEAVKEALDDLGEEFSGRGSFQIFERINNDLGVIFSNGTKWKELRRFSIMTLRSFGMGKRSIEDRIQEEASCLVEELRKANGSLCDPTFILSCAPSNVICSVIFHNRFDYKDEKFLNLMERLNENFKILNSPWMQVYNALPTLINYLPGSHNKVIKNFTEIKSYILGRVKEHQETLDMDNPRDFIDCFLIKMEQEKHNPHSEFTIESLMATVTDIFVAGTETTNITLRYGLLLLLKHTEVTAKVQAEIDHVIGRHRSPCMQDRTRMPYTDAMVHEIQRYIDLIPNNVPHAATCNVRFRSYFIPKGTELVTSLTSVLHDDKEFPNPEVFDPGHFLDENGNFKKSDYFMPFSIGKRMCVGEALARTELFLILTTILQNFNLKSLVDTKDIDTTPVANTFGRVPPSYQLYFIPR
modifications: full-length
Consider B10, for which the “Average logFC” value is recorded as 1.132, the “M1-1 Log2 Median Normalized” value is 0.664, the “M1-2 Log2 Median Normalized” value is listed as 1.318 and the “M2-1 Log2 Median Normalized” value is 0.5735. Also, the “M2-2 Log2 Median Normalized” value is reported as 1.971 and the change result is listed as “up”.

Values taken from patent US11994512B2, “Single-cell genomic methods to generate ex vivo cell systems that recapitulate in vivo biology with improved fidelity” (Massachusetts Institute of Technology, priority 2018, dated 2024).
